Test: soluble on expression in E. coli; label from the status in PepcDB or PDB records

Sequence: MGSDKIHHHHHHMPLSSVSRPSTQIQAQSTGKIFIIGLPRTGTTSVCVALLEQGLKVAHQGFTQQSFYQADAIADAPVFSDFKQLDGLFPGAKFVYLSRDIAPWIISMQMLLGRMLIHLDEHTGRFHPIMKRSFNHSFKLNLVTNPFDEVHLKQCYLEHQQTVEEYFTGRNDLLKININQVGSLNRLLEFIELAPQDLASSIKSAPLNFPHLNIGRNVASWDEYKHPNKVSANLSGPNKRKFFDYTLS
- soluble on expression in E. coli: not soluble

Sequence: MAIIPKNYARLESGYREKALKIYPWVCGRCSREFVYSNLRELTVHHIDHDHTNNPEDGSNWELLCLYCHDHEHSKYTEADQYGTTVIAGEDAQKDVGEAKYNPFADLKAMMNKKK
- soluble on expression in E. coli: not soluble

Sequence: MKNVLILGAGGQIARHVINQLADKQTIKQTLFARQPAKIHKPYPTNSQIIMGDVLNHAALKQAMQGQDIVYANLTGEDLDIQANSVIAAMKACDVKRLIFVLSLGIYDEVPGKFVEWNNAVIGEPLKPFRRAADAIEASGLEYTILRPAWLTDEDIIDYELTSRNEPFKGTIVSRKSVAALITDIIDKPEKHIGENIGINQPGTDGDKPFFM
- soluble on expression in E. coli: soluble

Sequence: MGSDKIHHHHHHMRGSSNIPLDWDKLRIFHAAAEAGSFTHAADKLHLSQSAISRQVSALEQDVGVKLFHRHARGLILTEQGELLYRTAHDVLLKLETVKMQLTETTEKPSGKLRVTTTVGLGQGWLTDKVQEFLQLYPDMSIQLILDNEELDVNMRHADCAIRLRQPQQSDLIQRKLFTVHMHVYAAPSYINRYGEPQTIEDLDNHRIISFGEPAPNYLLDVNWLEVAGRSSDNRRIPHLQINSQTSIKRACLLGIGVACMPDYIVGRDPGLIQLPINAEVPSFDTYFCYPDEMKNAAKLKVFRDFIVSKARNWNF
- soluble on expression in E. coli: not soluble

Sequence: TAPSQVLKIRRPDDWHLHLRDGDMLKTVVPYTSEIYGRAIVMPNLAPPVTTVEAAVAYRQRILDAVPAGHDFTPLMTCYLTDSLDPNELERGFNEGVFTAAKLYPANAVTNSSHGVTSVDAIMPVLERMEKIGMPLLVHGEVTHADIDIFDREARFIESVMEPLRQRLTALKVVFEHITTKDAADYVRDGNERLAATITPQHLMFNRNHMLVGGVRPHLYCLPILKRNIHQQALRELVASGFNRVFLGTDSAPHARHRKESSCGCAGCFNAPTALGSYATVFEEMNALQHFEAFCSVNGPQFYGLPVNDTFIELVREEQQVAESIALTDDTLVPFLAGETVRWSVKQ
- soluble on expression in E. coli: soluble

Sequence: MSNSTEPALAIITVTYSPGKHLGAFLSSVKEATAQPTYVVLADNGSVDGVPEAAAQADPSVEFFPTGGNIGYGSAINAAVRKLAPLRESGKINAEFFVLSNPDVVFEPGSIDAMVQCASRHPQAADIGPYIRQSDGSAYPSARQVPTIKNGVGHALFSSVWPSNPWSRAYRDNRDMTTERTAGWLSGSCLLVRWDAFEQIGGFDERYFMYMEDVDLGDRFGRAGFDNVFCPDAVITHAVGHAAGKHPEKMLPAHHDSAYRFQADRHPGLRYLPLRVLLRVGLKLRAVVAVAAAKFKLEHHHHHH
- soluble on expression in E. coli: soluble

Sequence: MELETEIIVDKVDVENPILITSFPGIGLVGTIATAHYIMELKLESIGIVDSRLLPPVASLYEGVILPPVRVYQSADLGFVLIHSDVPIIPQAAIDMSKKIVQFAAEINARRVYSFAGVATFEDKKRVFAAATSKELLEEVKDHAEIFKTGTISGIAGSIMNECVAAKMPGIVLLGETLGFNPDPRAAASLIEAVNKIMNWNVSVEKLLKEAEMIEAQMQKLAEQARMQEERKEEFPMYG
- soluble on expression in E. coli: soluble

Sequence: SLKIFTSKKGQLSQLKQQKFKLEKDIQRLFEENLTLLSGYIFIRSEFSIKNSRIDTLAFDPETQAFVIIEYKRQQNSSVVDQGISYLNLMLEYKADFIVEYNEKQKVPLKRNDVDWSQSKVIFVSPAFNDFQIQATNFKDLPIELWEVNRFDNDIITLNIINKSKSAPNIKAVSNEKREEFSILKEIKVYQESDHLADKTDFIQELYEDFKQGILNLDPDIEINTRKLYIAFKKDRNIADIRIQQKNLKIWINLPYGELDDPKNLAKNVSNTGHWGNGDYEITIESTQYLEYIMSLIKQAIKD
- soluble on expression in E. coli: soluble

Sequence: MKNIKEKGSQALKITATVFILAVICMSSAASAANLHVDPEAEEGYTTIQAAVDAANAGDTIFVSPGTYVENLKIDKQVRIWSDSRNPENTIVRPSDPAESPVEITGERVTFSGFGVEDSEKAGILLSGATSCFINNNRAQNSKYGILLQDAESNNINGNVITLNEAGLRLESSRSNTIQDNLIAYNYGPGISLEESSRNIFFNNYFKNAENIEENAANADNTWQSTLTVKRNLIRGPYIGGNFWADIEGTGYSETCEDKNSNGICDASYTLNGGGSDNSPLFPKVPSAVTALENKLDAEAYELGMETRGVEVNETENPAGEQTGENGPEGEENKTAETEASENGTPAPGIGFAIMAAGAAYFLKRRKAAALEHHHHHH
- soluble on expression in E. coli: not soluble

Sequence: MAEATVLIPAFNEEATVGRVVRVAREAGFPVVVADDGSKDETARRALEAGAEVVRLKENRGKGGAIAEGLKAVRTPFVLLLDADLLGLRPEHLFALLKPLKEGEARMAVGVFRGGRASTDLAMRLTPFLSGQRALRLEDLRSVPGLERARYDLELLLTRHAKRAGWPVVYVPMEGVSQVMKEEKRGVLAGLGHRLRMYWEILRYRLRAR
- soluble on expression in E. coli: soluble

Sequence: MSLAQHPTGIHHLAFMAGDIKKHIAFFSDVMGCPLVALFDMHGVPGGLHAFLRMNDHSYFSIVQLPDVDKIPVQLGVTHAGNGARPSAPGTLQHLAFRADTEDALLALRDRIRSHGINVLGPIDHGMCRSIYFAGPDQMTLEVACSSETIDEGHHHHHH
- soluble on expression in E. coli: soluble

Sequence: MLKGGEDVVQGTHVRELTPEWVARAVGGRLHPGGGPVRDLVWHSGAATPGSLFAVLPGRTTHGRHFIPEALARGASLVLADQAGPATLEVEDPWQALLRLGEALRRLFPGPVLAVGGSSGKTTTKEALAQGLGLPAPPGNLNTAPPLVRFFWHLDPQSPGAVVELGVDRQGEMAELFALAKPHLAVLTALGEEHLEAFGTLEKAVQEEAHLLRAPTALVGEQAAPLVLGLREDLLVYGFAEGTFRGRDLELGLRESRFRYGGLHVRVPYPGLGPAYGALAALAAAEVLGLSLEEVAERLARLTLPPGRMETREVGGVVFVNDAYNANPLSVKAGLRWLAAQPGRKWAVLGEMRELGRESLRLHLEVAEEAARLGLSPLYLGPHARHQAAFSGEAVESLEEALAWLKARVAPGDLVYLKASRAVGLERIVELWDAPFSS
- soluble on expression in E. coli: soluble

Sequence: MGSDKIHHHHHHMIYFETERLICRAFERADLQAFTAYRADPEVARYQSWQDYQYQDALALFENLQQTPFGANGTWMQLALVCRQTQALVGDLALHFIDAQQVEIGFTLASEHQGKGLAREALQGLLVYLFERLGKHRVSAITDVKNRAAWGLLERLGFRREAHYRDNIFFKGSWGSEYGYGLLAREWRQAQVGEPLQEFRLIKRVAPLNDFLRLRQITGLTPRSREAAELGLPLSLFGVHLLAGDRVLAMGRVVGDGALNFELVDIAVDPEYQGRGLGSAIMSAIMAYLDEMAPKGAYITLMADVPALYLKFGFEYSRPASEGMYKLQA
- soluble on expression in E. coli: not soluble

Sequence: MGSDKIHHHHHHMKVVFVSYEVFPFAKVGGLADVAGTLPKYLKKHGVDVTIVMPKHRIVEKNAEKFGYEIKKVAESLSVSHVKTDQKFDIYESVLPGSDVKTYFVANDYYFSAEDVYAGPDLGEQAIFFCAATLDLVKHLDLKPDIVHVNDWQTALIPVYLKTVYRDDPYFSRTATVLTIHNLGYQGVFDPKYLSFAGLPDYVYTIDGLEFYGQLNFLKGGIVFSDVINTVSPTYAEEIQTEEYGEKLDGVLRMRSKDLYGILNGIDYELYNPATDRYIYVNYDVNRLELKWENKVKLQEELGLPVNKETAVAGLISRLVPQKGLDLLVDVMDYLTLFDLQIVVLGTGDEQYENAFRKFQERYPDKVSANIKFDVELAQKIYAGADIFLMPSRYEPCGLGQMFSMRYGTIPVVRYTGGLADTVKEYDPQSMEGTGFGFKKYDSAHLLKAVSKALHFYYREKDHWRRIMTNAMNTDLSWDRSAKEYVDLYKKALAKVGR
- soluble on expression in E. coli: not soluble

Sequence: MSAAPLVRAVRWYQRVLSPRKPAPTCRFSPTCSEYAAQALDRHGALKGGWLALWRVLRCNPLVPGGFDPV
- soluble on expression in E. coli: soluble

Sequence: AAPTATVTPSSGLSDGTVVKVAGAGLQAGTAYWVAQSAWVDTGVYASNPADISSVTADANGSASTSLTVRRSFEGFLWDGTRWGTVDCTTAACHVTLRDALSNGPEGVAISF
- soluble on expression in E. coli: soluble

Sequence: MPRHETDCRYFANGYCSKGNTCTFTHDVATRNENICHFNLVGKCSYGRACRFLHTRPRNDELPSCSTPQTSQNQQNLQNSGQRVRPKQLPELKFNAQAAEFVPRWKMPQRGPVTSYAGAAASADHGESSSSFQSSHEQAQLMMCPYHQKSGDCNRQDMDCPFAHGNYCDMCQQWSLHPYNAELRKKHENECVANHTTEMERAFLLQKTEQKTCGICMENIFEKNLRFGILNGCQHCFCLDCIRQWRSKDQENVELATKTVRSCPECRQHSDYVIPSLFWVESGQEKDLLIEMYKENTKRKICKYYSNERSRGACPFGNKCFYKHQLPDGSIDPGEAPSSRRRPRLVDFLFDDNSDSDEETFRRFQEEHEEEQEELLRFVAETLPEADEESELFRQITEVLRHYQISGHRRGFQ
- soluble on expression in E. coli: not soluble

Sequence: MSLSQFKPTWMVKNIYDLTPAQLRANGIKVILTDLDNTLIAWNNPDGTPELRHWLTLLELAGIRVIVVSNNNRKRVDRAVAPFNLDYIHRALKPLSWGILRALRRWHLNRDEVVMVGDQLLTDVWAAHHSGVRSVLVKPILKSDAWVTKGNRLMEKVVMWRLRHNYPELTWQEDLDERKAHEGHHHHHH
- soluble on expression in E. coli: soluble

Sequence: AIAWNKKNEEKEDFGIIVILWKQVTVKEDGKVPLEPFLTAAKEVLRVVDAFGSGFRIVKNDIAGNIKKLYRANQTVHAETLQELIIAENSPDGLATVALLWLKRAFQFIASFLRRLVVTDKSLEQCVTEAYNCTLRPCHSAVIQKVFWGGVKLAPSRERFYRKLHPDLNIAKAKIEEFLIELHDPLCCIVQFFFQRELEDQCWGDEVYQRKDSSEWLKVSCEQDSV
- soluble on expression in E. coli: soluble

Sequence: MTAAPYNYSYIFKYIIIGDMGVGKSCLLHQFTEKKFMADCPHTIGVEFGTRIIEVSGQKIKLQIWDTAGQERFRAVTRSYYRGAAGALMVYDITRRSTYNHLSSWLADAKSLTNPNTAIFLIGNKADLEDQRDVPYEEAKAFAEENGLTFLECSAKTGSNVEDAFLETAKQIYQNIQDGSLDLNAADTGVQPKQNLPRAAENNGKKDCNC
- soluble on expression in E. coli: not soluble

Sequence: MDDLMKDRIDLLIDYIMKHCLWQFHSRSWDRKRQNEGILTKTTQLLCDEPVDLGTPADKCYWVDAVCLADAYKSRYPWLKTMDKDDIKALMGALHERLDHLTITGSLNLELTDQHYLEHHHHHH
- soluble on expression in E. coli: soluble

Sequence: MGSDKIHHHHHHSCSSKPANTAKGEKGSDKTGKDLELKLSFQEGIAPGESLNEKLDFMEKLGVVGFEPGGGGLAGRVNEIKQALNGRNIKVSAICAGFKGFILSTDPAIRKECMDTMKEIIAAAGELGSTGVIIVPAFNGQVPALPHTMETRDFLCEQFNEMGTFAAQHGTSVIFEPLNRKECFYLRQVADAASLCRDINNPGVRCMGDFWHMTWEETSDMGAFISGGEYLQHVHVASRKRRSMPGEDGDADNYINGFKGLKMIGYNNYVSFECGCQGDRNVVVPAAVKLLREQWEQA
- soluble on expression in E. coli: not soluble

Sequence: MGSDKIHHHHHHMKVLFTFGGIPHYLNAMLNRLQAKGVEITVVSPKKGNTTIGKGVKMVEGGTYKHLTTPEKKMFYGKSAFPALPEIIAEEKPDIVVVGWPYFLQVFFQPALRKAMKSCNAKLVIREIPFQTPPYGKIKEYFKANPMHDEGMRLLSKGIGFYLRQWITARIRKYCYAQAAGTLNYSTAAYDILPSYGVKKEQIHVTYNSTDTEALLKEKESVLASPSILPPCDRRLLHIGRLVKWKRVDLLIEAFRKVATDYPEAELVIVGDGPELDNLRQQANDLQLADSIRFIGAVYDPKTLGAYMNESSIYVLAGMGGLSINDAMTYGMPVLCAVCDSTERDLVMEGKNGYFFKDGDADSLAGRIREMFESPERCKEMGKESERMIREKINMETVSERYLKAFQEILRLTHLRDSGN
- soluble on expression in E. coli: not soluble

Reference: the DeepSol protein solubility set
